B1: secretory human prostatic acid phosphatase (hPAP, S-PAP): N62Q (protein)
parent chain: MRAAPLLLARAASLSLGFLFLLFFWLDRSVLAKELKFVTLVFRHGDRSPIDTFPTDPIKESSWPQGFGQLTQLGMEQHYELGEYIRKRYRKFLNESYKHEQVYIRSTDVDRTLMSAMTNLAALFPPEGVSIWNPILLWQPIPVHTVPLSEDQLLYLPFRNCPRFQELESETLKSEEFQKRLHPYKDFIATLGKLSGLHGQDLFGIWSKVYDPLYCESVHNFTLPSWATEDTMTKLRELSELSLLSLYGIHKQKEKSRLQGGVLVNEILNHMKRATQIPSYKKLIMYSAHDTTVSGLQMALDVYNGLLPPYASCHLTELYFEKGEYFVEMYYRNETQHEPYPLMLPGCSPSCPLERFAELVGPVIPQDWSTECMTTNSHQGTEDSTD
B2: secretory human prostatic acid phosphatase (hPAP, S-PAP): N62Q, N188Q (protein)
parent chain: B1 parent chain
B3: secretory human prostatic acid phosphatase (hPAP, S-PAP): N188Q, N301Q (protein)
parent chain: B1 parent chain
B4: secretory human prostatic acid phosphatase (hPAP, S-PAP): N62Q, N301Q (protein)
parent chain: B1 parent chain
B5: secretory human prostatic acid phosphatase (hPAP, S-PAP): N188Q (protein)
parent chain: B1 parent chain
B6: secretory human prostatic acid phosphatase (hPAP, S-PAP): N301Q (protein)
parent chain: B1 parent chain
B7: secretory human prostatic acid phosphatase (hPAP, S-PAP): PNGase F (protein)
parent chain: B1 parent chain
B8: secretory human prostatic acid phosphatase (hPAP, S-PAP): N62Q, N188Q, N301Q (protein)
parent chain: B1 parent chain

Key:
[1] = DiFMUP assay with 70 mM L-(+)-tartrate; settings: glycan lost; control: wild-type r-hPAP
[2] = DiFMUP phosphatase assay, crude cell lysates; settings: glycan lost; control: wild-type r-hPAP
[3] = DiFMUP phosphatase assay, crude secreted fractions; settings: glycan lost; control: wild-type r-hPAP
[4] = anti-hPAP western blot, lysates and secreted fractions; settings: glycan lost; control: wild-type r-hPAP
[5] = DiFMUP phosphatase assay after 24 h PNGase F; settings: glycan lost; control: untreated r-hPAP

Row | Protein | other: inhibition by L-(+)-tartrate [1] | expression_or_secretion [4] | also measured
1 | B1 | no change | no change | enzymatic_activity, other: RFU/µg total protein at 10 min [2]: decreases, 7.8 (0.29) vs 12.2 (0.28); enzymatic_activity, other: RFU/µg total protein at 10 min [3]: decreases, 67.0 (2.78) vs 109.5 (1.44)
2 | B2 | no change | decreases | –
3 | B3 | – | abolishes | –
4 | B4 | – | abolishes | –
5 | B5 | no change | decreases | –
6 | B6 | – | abolishes | –
7 | B7 | – | – | enzymatic_activity [5]: no change
8 | B8 | – | abolishes | –

Reference: publication PMC3289678
